In patent publication US20240317871A1 (IMMUNOMIC THERAPEUTICS, published 2024):

T1: cynomolgus monkey HVEM (cynomolgus monkey, UniProt A0A2K5W0R1 39-203)
T1 sequence: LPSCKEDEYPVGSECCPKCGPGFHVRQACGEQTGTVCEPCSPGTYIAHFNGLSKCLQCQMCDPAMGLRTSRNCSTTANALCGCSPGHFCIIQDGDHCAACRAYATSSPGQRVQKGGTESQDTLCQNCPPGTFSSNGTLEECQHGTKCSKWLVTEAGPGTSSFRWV

T2: murine HVEM (murine, UniProt Q80WM9 39-206, limits assumed)
T2 construct: also called Mouse
T2 sequence (looked up): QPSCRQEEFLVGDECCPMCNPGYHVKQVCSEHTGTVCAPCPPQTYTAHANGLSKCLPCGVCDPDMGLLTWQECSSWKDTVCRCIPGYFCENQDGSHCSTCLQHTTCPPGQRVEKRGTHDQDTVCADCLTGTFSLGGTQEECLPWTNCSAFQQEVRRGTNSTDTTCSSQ

T3: human HVEM (human, UniProt Q92956 39-202, limits assumed)
T3 sequence (looked up): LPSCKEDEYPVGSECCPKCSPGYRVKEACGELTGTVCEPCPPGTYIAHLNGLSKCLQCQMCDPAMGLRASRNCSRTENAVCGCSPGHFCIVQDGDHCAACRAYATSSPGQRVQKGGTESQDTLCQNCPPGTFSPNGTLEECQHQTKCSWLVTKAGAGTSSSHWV

T4: His-tagged human HVEM (human, UniProt Q92956 39-202, limits assumed)
T4 construct: Analyte of the BLI assay, 200 nM in PBS; not shown: His tag
T4 sequence (looked up): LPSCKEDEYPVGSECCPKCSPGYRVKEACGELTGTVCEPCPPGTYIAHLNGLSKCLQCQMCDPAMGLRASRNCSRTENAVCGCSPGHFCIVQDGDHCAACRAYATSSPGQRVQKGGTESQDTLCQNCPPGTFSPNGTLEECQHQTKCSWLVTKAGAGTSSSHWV


Assays:
cynomolgus monkey HVEM = target: T1, cynomolgus monkey HVEM; experiment: ELISA
murine HVEM = target: T2, murine HVEM; experiment: ELISA
human HVEM = target: T3, human HVEM; experiment: ELISA
His-tagged human HVEM = target: T4, His-tagged human HVEM; experiment: BLI OctetRed96, mAb captured, 200 nM His-HVEM
Description: Binding of antibodies to HVEM may also be determined by bio-layer interferometry (BLI) on an OctetRed96@ system (Sartorius). (See http://www.fortebio.com/bli_technology.html for general description of a BLI assay.) For this experiment, murine anti-human HVEM antibodies were captured from culture supernatant using anti-mouse IgG Fc capture and immobilized to dip and read biosensors. Sensors were then dipped into a solution of 200 nM His-tagged human HVEM in phosphate-buffered saline (PBS). Probes were dipped into PBS assay buffer and the dissociation rate (koff) was measured. The association rate (kₒₙ) and affinity (KD) were determined by curve fitting analysis.

Binder | ELISA signal (cynomolgus monkey HVEM) | ELISA signal (murine HVEM) | ELISA signal (human HVEM) | Kd (His-tagged human HVEM) [nM] | koff (His-tagged human HVEM) [s⁻¹] | kon (His-tagged human HVEM) [M⁻¹ s⁻¹]
Ab_007 (H5S14-6A6A) (antibody, V domains shown, also called Ab_7) VH: EVKLVESGGGLVQPGGSLRLSCATSGFTFTDYYMSWVRQTPGKALEWLGFIRNQANAYTTEYSVSVKGRFTISRDNSQSILYLQMNTLRVEDSATYYCARVPDYWGQGTTLTVSS VL: DIQMTQSPASQSASLGESVTITCLASQTIGTWLAWYQQKPGKSPQLLIYAATSLADGVPSRFSGSGSGTKFSFKISSLQAEDFVSYYCQQLHSTPYTFGGGTKLEIK | 0.739 | 0.042 | 2.56 | – | – | –
Ab_014 (H5S14-15A12A) (antibody, V domains shown, also called Ab_14) VH: QVQLKQSGPGLVQPSQSLSITCTVSGFSLTSYGVHWVRQSPGKGLEWLGVIWSGGSTDYNAAFICRLSISKDSSKSQVFFKMNSLQADDTAMYYCARNLGGSWVDYWGQGTSVTVSS VL: ETTVTQSPASLSVATGEKVTIRCITSTDIDDDMNWYQQKPGEPPKLLISEGNTLRPGVPSRFSSSGYGTDFVFTIENTLSEDVADYYCLQSDNMPYTFGGGTKLEIK | 0.064 | 0.049 | 0.05 | – | – | –
Ab_003 (H5S14-3A3A) (antibody, V domains shown, also called Ab_3) VH: QIQLVQSGPELKKPGETVKISCKASGYTFTNYGVNWVKQAPGKDLKWMGWINTYTGEPTYADDFKGRFAFSLETSASTAYLQINNLKNEDMATYFCTSRSWVLWGQGTLVTVSA VL: QIVLTQSPAIMSASLGEEITLTCSASSSVSYMQWYQQKSGTSPKLLIYSTSNLASGVPSRFSGSGSGTFYSLTISSVEAEDAADYYCHQWSSYPTFGGGTELEI | 2.29 | 0.051 | – | – | – | –
Ab_016 (H5S14-17A15A) (antibody, V domains shown, also called Ab_16) VH: QVQLQQSGAELVRPGTSVKMSCKAAGYTFTNYWIGWVKQRPGHGLEWIGDIYPGGGYTNYNEKFKGKATLTADTSSSTAYMQLSSLTSEDSAIYYCARNGNSLDYWGQGTTLTVSS VL: SIVMTQTPKFLLVSAGDRVTITCKASQSVSNDVAWYQQKPGQSPKLLIYYESNRYTGVPDRFTGSGYGTDFTFTISTVQAEDLAVYFCQQDYSSPWTFGGGTKLEIK | 0.061 | 0.042 | 0.047 | – | – | –
Ab_017 (H5S14-18A16A) (antibody, V domains shown, also called Ab_17) VH: EVQLVETGGGLVQPKGSLKLSCAASGFTFNTNAMNWVRQAPGKGLEWVARIRSKSNNYATYYADSVKDRFTISRDDSQSMLYLQMNNLKTEDTAMYYCVREGGYGNYPYFDYWGQGTTLTVSS VL: SIVMTQTPKFLLVSAGDRVTITCKASQSVSNDVAWYQQKPGQSPKLLIYYASNRYTGVPDRFTGSGYGTDFTFTISTVQAEDLAVYFCQQDYSSPWTFGGGTKLEIK | 0.06 | 0.044 | 0.051 | – | – | –
Ab_020 (H5S14-22A20A) (antibody, V domains shown, also called Ab_20) VH: EVQLQQSGPELVKPGASVKMSCKASGYTFTSYVMHWVKQKPGQGLEWIGYINPYNDGTKYNEKFKGKATLTSDKSSSTAYMELSSLTSEDSAVYYCARGIITTVIEPILYAMDYWGQGTSVTVSS VL: NIVLTQSPASLAVSLGQRATISCRASESVDSYGNSFMHWYQQKPGQPPKLLIYLASNLESGVPARFSGSGSRTDFTLTIDPVEADDAATYYCQQNNEDPYTFGGGTKLEIK | 0.064 | 0.043 | 0.049 | – | – | –
Ab_021 (H5S14-29A20A) (antibody, V domains shown, also called Ab_21) VH: EVQLQQSGPELVKPGASVKMSCKASGYTFTSYVMHWVKQKPGQGLEWIGYINPYNDGTKYNEKFKGKATLTSDKSSSTAYMELSSLTSEDSAVYYCARGIITTVVEPILYAMDYWGQGTSVTVSS VL: NIVLTQSPASLAVSLGQRATISCRASESVDSYGNSFMHWYQQKPGQPPKLLIYLASNLESGVPARFSGSGSRTDFTLTIDPVEADDAATYYCQQNNEDPYTFGGGTKLEIK | 0.061 | 0.042 | 0.046 | – | – | –
Ab_015 (H5S14-16A13A) (antibody, V domains shown, also called Ab_15) VH: EVQLVESGGGLVKPGGSLKLSCAASGFTFSDYYMYWVRQTPEKRLEWVATISDGGSYTYYPDSVKGRFTISRDNAKNNLYLQMSSLKSEDTAMYYCARDGNYYAMDYWGQGTSVTVSS VL: DVLMTQTPLSLPVSLGDQASISCRSSQSIVHSNGNTYLEWYLQKPGQSPKLLIYKVSNRFSGVPDRFSGSGSGTDFTLKISRVEAEDLGVYYCFQGSHVPWTFGGGTKLEIK | 0.058 | 0.042 | 0.045 | – | – | –
Ab_018 (H5S14-21A19A) (antibody, V domains shown, the values of that row are written under this molecule; also called Ab_18; Ab_018 and Ab_019) VH: QVQLQQPGSELVRPGASVKLSCKASGYTFTSYWMHWVKQRPGQGLEWIGNIYPGSGSTNYDEKFKSKATLTVDTSSSTAYMQLSSLTSEDSAVYYCTIYDGYYWGQGTLVTVSA VL: DIQMTQSPASLSVSVGETVTITCRASENIYSNLAWYQQKQGKSPQLLVYAATNLADGVPSRFSGSGSGTQYSLKINSLQSEDFGSYYCQHFWGTPRTFGGGTKLEIK | 0.059 | 0.043 | – | – | – | –
Ab_002 (H5S14-2A2A) (antibody, V domains shown, also called Ab_2) VH: QVQLQQPGAELVKPGTSVKMSCKASGYTFTSYWMHWVKQRPGQGLEWIGDIYPGSDSTNYNEKFKSKATLTVDTSSSTAYMQLSSLTSEDSAVYYCARSGYYGSYLDYWGQGTTLTVSS VL: not shown | 1.98 | 0.043 | 2.8 | – | – | –

More lines, now with the values ahead:

ELISA signal (cynomolgus monkey HVEM) | ELISA signal (murine HVEM) | ELISA signal (human HVEM) | Kd (His-tagged human HVEM) [nM] | koff (His-tagged human HVEM) [s⁻¹] | kon (His-tagged human HVEM) [M⁻¹ s⁻¹] | Binder
– | – | 2.87 | 1.97 | 0.00605 | 3.08e+06 | Ab_044 (H5S15-30A26A) (antibody, V domains shown, also called Ab_44) VH: QVQLQQPGAELVKPGAPVKLSCKASGYTFTSYWMNWVKQRPGRGLEWIGRIDPSDSETHYNQKFKDKATLTVDKSSSTAYIQLSSLTSEDSAVYYCAREYYGNHFDYWGQGTTLTVSS VL: not shown
0.06 | 0.043 | – | – | – | – | Ab_056 (H5S19-11A9B) (antibody, V domains shown, also called Ab_56) VH: DVQLQESGPGLVNPSQSLSLTCTVTGYSITSDYAWNWIRQFPGNKLEWMGYISYSGNTGYNPSLKSRISITRDTSKNQFFLQLNSVTSEDTATYYCARWGLRIDYWGQGTTLTVSS VL: DIKMTQSPSSMYASLGESVTITCKASQDINSYLSWFQQKPGKSPKTLIYRANRLVDGVPSRFSGSGSGQDYSLTISSLEFEDMGIYYCLQYDEFPFTFGSGTKLEMK
0.065 | 0.044 | – | – | – | – | Ab_086 (H5S20-56A25A) (antibody, V domains shown, also called Ab_86) VH: EVKLVESGGGLVKPGGSLKLSCAASGFTFSSYGMSWVRQTPEKRLEWVATISGGGSYTFYPDSVKGRFTISRDNAKNNLYLQVSSLRSEDTALYYCIYDGSYWGQGTLVTVSA VL: not shown
0.061 | 0.043 | – | – | – | – | Ab_084 (H5S20-51A40A) (antibody, V domains shown, also called Ab_84) VH: QVQLKQSGPGLVQPSQSLSITCTVSGFSLTSYGVHWVRQSPGKGLEWLGVIWRGGSTDYNAAFMSRLSITKDNSKSQVFFKMNSLQADDTAIYYCAKNRGYGEGYYAMDYWGQGTSVTVSS VL: DIVMTQSQKFMSTSVGDRVSVTCKASQNVGTNVAWYQQKPGQSPKALIYSASYRYSGVPDRFTGSGSGTDFTLTISNVQSEDLAEYFCQQYNSYPLTFGAGTKLELK
1.06 | 0.045 | – | – | – | – | Ab_057 (H5S19-5A7A) (antibody, V domains shown, also called Ab_57) VH: DVKLVESGGGLVKPGGSLKLSCAASGFTFSSYTMSWVRQTPEKRLEWVATISSGGSYTYYPDSVKGRFTISRDNAKNTLYLQMSSLKSEDTAMYYCTRGDDYGFDYWGQGTTLTVSS VL: DVLMTQTPLSLPVSLGDQASISCRSSQSIVHSNGNTYLEWYLQKPGQSPKLLIYKVSNRFSGVPDRFSGSGSGTDFTLKISRVEAEDLGVYYCFQGSHVPWTFGGGTKLEIK
0.065 | 0.044 | – | – | – | – | Ab_049 (H5S19-25A24A) (antibody, V domains shown, also called Ab_49) VH: QVQLQQSGAELMKPGASVKISCKATGYTFSSYWIEWVKQRPGHGLEWIGEILPGSGSTNYNEKFKGKATFTADTSSNTAYMQLSSLTSEDSAVYYCARYPRWGKIDYWGQGTTLTVSS VL: DIVMTQAAFSNPVTLGTSASISCRSSKSLLHSNGITYLYWYLQKPGQSPQLLIYQMSNLASGVPDRFSSSGSGTDFTLRISRVEAEDVGVYYCAQNLELPYTFGGGTKLEIK
0.165 | – | 0.157 | – | – | – | Ab_022 (H5S14-23A21A) (antibody, V domains shown, also called Ab_22) VH: LVKTGASVKISCKASGYSFTGYYMHWVKQSHGKSLEWIGYISCYNGATSYNQKFKGKATFTVDTSSSTAYMQFNSLTSEDSAVYYCARTYYYGSSYGAMDYWGQGTSVTVSS VL: not shown
– | 0.043 | 0.462 | – | – | – | Ab_059 (H5S19-3B10B) (antibody, V domains shown, also called Ab_59) VH: QIQLVQSGPELKKPGETVKISCKASGYTFTNFGVNWVKQAPGKGLKWMGWINTYTGEPTYADDFKGRFAFSLETSASTAYLRINNLKNEDTATYFCARSFYKNYAFWGQGTILTVSS VL: QIVLTQSPAIMSASPGEKVTLTCSASSSVDSSYLFWYQQKPGSSPKLWIYSTSNLASGVPARFSGSGSGTSYSLTISSMEAEDAASYFCHQWSSYPWTFGGGTILEI
